The values that follow are results of earlier work, collected in PMC8698604.

Read-outs that look alike come from different tables or passages of the source.

The target of data set [1] is t-PA (Homo sapiens) (UniProt P00750).
In data set [2] the target is plasmin (Homo sapiens) (UniProt P00747).
In data set [3] the target is plasminogen (Homo sapiens) (UniProt P00747).
For data set [4], the target named is plasmin (Homo sapiens) (UniProt P00747). This is another data set of the same source.
Data set [5] concerns the target t-PA (Homo sapiens) (UniProt P00750). This is another data set of the same source.
Data set [6] deals with plasmin (Homo sapiens) (UniProt P00747). This is another data set of the same source.
Data set [7] addresses plasminogen (Homo sapiens) (UniProt P00747). The source holds these as a separate data set.
Data set [8] has the same target. As to the kind of experiment: fluorescence.
Data set [9] has as its target fibrin (Homo sapiens) (UniProt P02671).
The target is the same in data set [10]. This is another data set of the same source.

Sequence of UniProt P00750 (P00750 36-562): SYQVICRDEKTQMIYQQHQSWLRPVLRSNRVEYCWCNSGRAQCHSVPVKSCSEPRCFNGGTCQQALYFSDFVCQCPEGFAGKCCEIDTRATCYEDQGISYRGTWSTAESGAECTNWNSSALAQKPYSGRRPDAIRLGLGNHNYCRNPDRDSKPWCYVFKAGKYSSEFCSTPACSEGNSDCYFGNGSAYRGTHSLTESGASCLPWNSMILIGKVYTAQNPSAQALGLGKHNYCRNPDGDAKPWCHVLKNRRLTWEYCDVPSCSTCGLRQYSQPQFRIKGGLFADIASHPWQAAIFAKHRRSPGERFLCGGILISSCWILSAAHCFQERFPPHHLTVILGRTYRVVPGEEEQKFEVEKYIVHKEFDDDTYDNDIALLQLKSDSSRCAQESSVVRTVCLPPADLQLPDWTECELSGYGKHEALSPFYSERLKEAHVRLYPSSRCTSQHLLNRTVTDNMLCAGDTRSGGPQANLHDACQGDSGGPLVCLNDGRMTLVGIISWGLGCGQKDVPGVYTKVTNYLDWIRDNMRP

In the case of S100A10 (from UniProt P60903), the Kd with t-PA (Homo sapiens) [1] was 450 nM; with plasmin (Homo sapiens) [2], 360 nM; in data set [3], 1810 nM.
For the substance ANXA2 (from UniProt P07355), the Kd in the data set with plasmin (Homo sapiens) [4] is 780 nM.
Consider “AIIt (ANXA2/S100A10) (from UniProt P07355)”, for which the Kd was 680 nM with t-PA (Homo sapiens) [5], 75 nM in the data set with plasmin (Homo sapiens) [6], 110 nM in data set [7] and 1000 nM in data set [8].
With plasminogen (from UniProt P00747), the Kd is 300 nM in the data set with fibrin (Homo sapiens) [9] and 30000 nM in the data set with fibrin (Homo sapiens) [10].

As usually defined, the Kd is a measure of binding affinity in units of concentration.
